17 molecules from patent US20060257938A1, “Method of screening for drugs that block ligand binding to a lipid binding protein” (priority 2005, published 2006) can be followed below.

Substitutions are numbered along the chain they refer to. Several values for one entry are separate records, joined by “and”; a condition that tells them apart may be missing. Equal entries are not always repeated.

B1: 119H, 72A (protein, listed as Rattus norvegicus)
chain: AFDGTWKVDRNENYEKFMEKMGINVVKRKLGAHDNLKLTITQEGNKFTVKESSNFRNIDVVFELGVDFAYSAADGTELTGTWTMEGNKLVGKFKRVDNGKELIAVREISGNELIQTYTHEGVEAKRIFKKE
modifications: PEPTIDE (1)...(131) wild-type rat intestinal fatty acid binding protein
B2: 11G, 72A (protein, listed as Rattus norvegicus)
chain: B1 chain with N11G, H119Y
modifications: PEPTIDE (1)...(131) wild-type rat intestinal fatty acid binding protein
B3: 119Q, 72A (protein, listed as Rattus norvegicus)
chain: B1 chain with H119Q
modifications: PEPTIDE (1)...(131) wild-type rat intestinal fatty acid binding protein
B4: 119K, 72A (protein, listed as Rattus norvegicus)
chain: B1 chain with H119K
modifications: PEPTIDE (1)...(131) wild-type rat intestinal fatty acid binding protein
B5: 126A, 72A (protein, listed as Rattus norvegicus)
chain: B1 chain with H119Y, R126A
modifications: PEPTIDE (1)...(131) wild-type rat intestinal fatty acid binding protein
B6: 11C, 72A (protein, listed as Rattus norvegicus)
chain: B1 chain with N11C, H119Y
modifications: PEPTIDE (1)...(131) wild-type rat intestinal fatty acid binding protein
B7: 102H, 72A (protein, listed as Rattus norvegicus)
chain: B1 chain with L102H, H119Y
modifications: PEPTIDE (1)...(131) wild-type rat intestinal fatty acid binding protein
B8: 119T, 72A (protein, listed as Rattus norvegicus)
chain: B1 chain with H119T
modifications: PEPTIDE (1)...(131) wild-type rat intestinal fatty acid binding protein
B9: 11Y1, 72A (protein, listed as Rattus norvegicus)
chain: B1 chain with N11Y, H119Y
modifications: PEPTIDE (1)...(131) wild-type rat intestinal fatty acid binding protein
B10: 119S, 72A (protein, listed as Rattus norvegicus)
chain: B1 chain with H119S
modifications: PEPTIDE (1)...(131) wild-type rat intestinal fatty acid binding protein
B11: 119I, 72A (protein, listed as Rattus norvegicus)
chain: B1 chain with H119I
modifications: PEPTIDE (1)...(131) wild-type rat intestinal fatty acid binding protein
B12: 102F, 72A (protein, listed as Rattus norvegicus)
chain: B1 chain with L102F, H119Y
modifications: PEPTIDE (1)...(131) wild-type rat intestinal fatty acid binding protein
B13: 126E, 72A (protein, listed as Rattus norvegicus)
chain: B1 chain with H119Y, R126E
modifications: PEPTIDE (1)...(131) wild-type rat intestinal fatty acid binding protein
B14: 126D, 72A (protein, listed as Rattus norvegicus)
chain: B1 chain with H119Y, R126D
modifications: PEPTIDE (1)...(131) wild-type rat intestinal fatty acid binding protein
B15: 119V, 72A (protein, listed as Rattus norvegicus)
chain: B1 chain with H119V
modifications: PEPTIDE (1)...(131) wild-type rat intestinal fatty acid binding protein
B16: 11Y1, L72A (protein, listed as Rattus norvegicus)
chain: B1 chain with N11Y, H119Y
modifications: PEPTIDE (1)...(131) wild-type rat intestinal fatty acid binding protein
B17: 102G, 72A (protein, listed as Rattus norvegicus)
chain: B1 chain with L102G, H119Y
modifications: PEPTIDE (1)...(131) wild-type rat intestinal fatty acid binding protein

The first assay can be described thus: Probe fluorescence ratio response to palmitic acid relative to ADIFAB2. The conditions noted are these: response relative to ADIFAB2. It is filed as binding. The text has this: (§1) In an alternate preferred embodiment, the protein is rI-FABP that has Ala substituted for Leu at position 72 (rI-FABP-L72A) with the resulting probe named ADIFAB2. […] Other probes useful in embodiments of the invention are shown in Tables 1-6 and are also described in U.S. application Ser. No. 11/085,792, filed Mar. 21, 2005 which is incorporated herein by reference. The indicated substitutions are with reference to the ADIFAB protein of SEQ ID NO: 2.
(§2) ADIFAB2 also has an altered spectral response, making it especially useful for measurements of FFAu in blood samples (Apple et al, Clinical Proteomics, (2004) 1:41-44, U.S. patent application Ser. No. 10/670,958). The wavelengths at the maximum intensities emitted by these fluorescently-labeled I-FABP's in the absence of FFA is about 420 to 480 nm. The emission wavelengths at the maximum intensities emitted by these fluorescently-labeled I-FABP's with FFA bound are between about 495 to 580 nm. Experiments typically involve measuring the fluorescence response within both emission maxima or at wavelengths for which the effect of interfering molecules such as hemoglobin can be eliminated as described in U.S. application Ser. No. 10/670958 and PCT/US2004/030521 and the calculation of the ratio ‘R’ of the two fluorescence intensities. The baseline value for this ratio, measured in the absence of analyte, is designated R0.
(§3) The intensity ratio (“R” value) is determined as follows. The ratio is calculated using the following formula: R=Fλ1/Fλ2 wherein, Fλ1 is the measured fluorescence intensities (intensity of sample with probe present minus intensity of sample without probe present) at wavelength 1 and Fλ2 is the measured fluorescence intensities (intensity of sample with probe present minus intensity of sample without probe present) at wavelength 2. Then, for a given probe, ΔR, the difference in R value between the measurement in the presence of the test compound (agent) and in the absence of the test compound (agent), is calculated as follows: ΔR=R+agent−R0 In some embodiments, the ΔR value may then be compared to some reference, for example, an agent with a known affinity for a given probe, by ΔR/ΔRreference. Measurements of fluorescence intensities are obtained using standard techniques.
B1: the “DR/DR PA” value was found to be 0.32.
As for B2, the “DR/DR PA” value worked out at 0.61.
On the same count and under the same terms, next, B3: 0.35.
Regarding B4, the “DR/DR PA” value was 0.58.
Regarding B5, the “DR/DR PA” value is 1.22.
For the molecule B6, the “DR/DR PA” value is given as 0.80.
For the molecule B7, the “DR/DR PA” value amounted to 0.37.
Turning to B8, the “DR/DR PA” value was 0.79.
Take B9: the “DR/DR PA” value is on record as 0.30.
The same measure, in the same setting: for B10 the value was 0.37 and 0.373.
For the molecule B11, the “DR/DR PA” value was 0.69 and 0.720.
Take B12: the “DR/DR PA” value is 0.43 and 0.369.
Take B13: the “DR/DR PA” value came to 0.21.
Still for that read-out and setting: next, B14: 0.37; B15: 0.57 and 0.480; B16: 0.25.
Same read-out and setting: next, B17: 0.36.

The nature of the next assay: Probe fluorescence ratio response to linolenic acid relative to ADIFAB2. In kind it is binding. The conditions noted are these: response relative to ADIFAB2.
Excerpt: as §1, §2, §3
Regarding B1, the “DR/DR LNA” value is reported as 0.67.
Turning to B2, the “DR/DR LNA” value came out at 0.67.
For B3, the “DR/DR LNA” value came out at 0.62.
The same measure, in the same setting: next, B4: 0.78; B5: 1.36.
The same measure, in the same setting: next, B6: 0.64.
For the molecule B7, the “DR/DR LNA” value came out at 0.63.
Consider B8, for which the “DR/DR LNA” value was determined as 1.21.
Same read-out and setting: next, B9: 0.31; B10: 0.73 and 0.734; B11: 1.06 and 0.940.
On the same count and under the same terms, for B12 the value was 0.53 and 0.588; for B13, 0.32; for B14, 0.56.
With B15, the “DR/DR LNA” value is 1.00 and 0.710.
The same measure, in the same setting: for B16 the value was 0.33; for B17, 0.38.

The nature of the next assay: Probe fluorescence ratio response to arachidonic acid relative to ADIFAB2. It is filed as binding. As to conditions: arachidonic acid; response relative to ADIFAB2.
Excerpt: as §1, §2, §3
For B1, the “DR/DR AA” value was 0.71.
As for B2, the “DR/DR AA” value was 0.63.
B3: the “DR/DR AA” value is given as 0.60.
As for B4, the “DR/DR AA” value was found to be 0.78.
For the molecule B5, the “DR/DR AA” value is reported as 1.27.
For B6, the “DR/DR AA” value came to 0.52.
On to B7, for which the “DR/DR AA” value was determined as 0.52.
The same measure, in the same setting: next, B8: 1.22; B9: 0.52.
Turning to B10, the “DR/DR AA” value is 0.78 and 0.781.
The same measure, in the same setting: for B11 the value was 1.01 and 0.920; for B12, 0.95 and 0.858.
As for B13, the “DR/DR AA” value worked out at 0.25.
Turning to B14, the “DR/DR AA” value is reported as 0.44.
As to B15, the “DR/DR AA” value was 0.99 and 0.750.
With B16, the “DR/DR AA” value was 0.49.
For the molecule B17, the “DR/DR AA” value came out at 0.63.

The next assay can be described thus: Probe fluorescence ratio response to oleic acid relative to ADIFAB2. In kind it is binding. The conditions noted are these: response relative to ADIFAB2.
Excerpt: as §1, §2, §3
Regarding B1, the “DR/DR OA” value is on record as 0.59.
As to B2, the “DR/DR OA” value is on record as 0.62.
Take B3: the “DR/DR OA” value is listed as 0.60.
In the case of B4, the “DR/DR OA” value is 0.87.
Same read-out and setting: for B5 the value was 1.38; for B6, 0.70.
Take B7: the “DR/DR OA” value is on record as 0.66.
On the same count and under the same terms, next, B8: 1.26; B9: 0.16; B10: 0.71 and 0.714.
For the molecule B11, the “DR/DR OA” value was 1.08 and 1.050.
The same measure, in the same setting: for B12 the value was 0.64 and 0.554; for B13, 0.30.
As to B14, the “DR/DR OA” value was 0.64.
For B15, the “DR/DR OA” value was 1.02 and 0.780.
In the case of B16, the “DR/DR OA” value amounted to 0.16.
On the same count and under the same terms, for B17 the value was 0.65.

The next assay is described as follows: Probe fluorescence ratio response to linoleic acid relative to ADIFAB2. The conditions noted are these: response relative to ADIFAB2. In kind it is binding.
Excerpt: as §1, §2, §3
As to B1, the “DR/DR LA” value came to 0.63.
Still for that read-out and setting: next, B2: 0.70; B3: 0.58.
For the molecule B4, the “DR/DR LA” value is given as 0.85.
Still for that read-out and setting: next, B5: 1.32; B6: 0.70; B7: 0.65.
Turning to B8, the “DR/DR LA” value was determined as 1.22.
B9: the “DR/DR LA” value came to 0.33.
Turning to B10, the “DR/DR LA” value is 0.46 and 0.457.
Regarding B11, the “DR/DR LA” value is 1.10 and 0.960.
With B12, the “DR/DR LA” value was 0.73 and 0.657.
On to B13, for which the “DR/DR LA” value was found to be 0.34.
Same read-out and setting: for B14 the value was 0.59; for B15, 1.01 and 0.720; for B16, 0.32.
The same measure, in the same setting: next, B17: 0.78.
